Experiment [1] addresses T1, IFNAR2/Ig fusion protein (IFNAR2 extracellular domain fused to the hinge, CH2 and CH3 domains of human IgG1) (human, UniProt P48551 27-243).
T1 construct: extracellular domain; also called IFNAR2/Fc; IFNAR2-Fc; not shown: human IgG1 constant region: hinge, CH2 and CH3 domains
T1 sequence (looked up): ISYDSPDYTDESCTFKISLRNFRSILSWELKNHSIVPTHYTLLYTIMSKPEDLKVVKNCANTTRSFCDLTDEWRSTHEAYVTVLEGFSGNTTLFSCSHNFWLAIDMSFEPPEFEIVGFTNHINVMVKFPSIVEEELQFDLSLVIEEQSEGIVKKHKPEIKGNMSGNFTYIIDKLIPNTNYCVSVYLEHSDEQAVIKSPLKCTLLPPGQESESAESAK
Put plainly: ELISA on captured IFNAR2-Fc; reference, value not given. Here is the method: The receptor binding properties of the Interferon-beta mutants described in C were assessed using two different binding assays. One assay measured binding of the interferon-beta mutants to a fusion protein, IFNAR2/Ig, comprising the extracellular domain of the human IFNAR2 receptor chain fused to part of the constant region of a human IgG. IFNAR2-Fc was expressed in chinese hamster ovary (CHO) cells and purified by protein A sepharose affinity chromatography according to the instructions of the manufacturer (Pierce Chem. Co., Rockford, Ill., catalog #20334). The binding of interferon-beta mutants to IFNAR2-Fc was measured in an ELISA format assay. […] Binding of the interferon-beta mutants to IFNAR2-Fc was measured by adding 50 μl/well mutant interferon-beta in conditioned media, serially diluted in Dulbecco's Modified Eagle's Medium (DMEM) supplemented with 10% fetal bovine serum, and incubating for 2 hours at 4° C. […] After washing, interferon-beta bound to the plates was detected by adding 50 μl/well of a cocktail consisting of a 1:1000 dilution of a rabbit polyclonal anti-interferon antibody (#447) plus horseradish peroxidase (HRP)-labelled donkey anti-rabbit IgG (Jackson ImmunoResearch), and incubating for 15 minutes at 4° C. After two washes, HRP substrate was added, and the plate was incubated at 4° C. before being read on an ELISA plate reader at an absorbance of 450 nm. […]

Experiment [2] concerns the target T1, IFNAR2/Ig fusion protein (IFNAR2 …). Nature of the experiment: ELISA on captured IFNAR2-Fc. Here is the method:
(§1) The receptor binding properties of the Interferon-beta mutants described in C were assessed using two different binding assays. One assay measured binding of the interferon-beta mutants to a fusion protein, IFNAR2/Ig, comprising the extracellular domain of the human IFNAR2 receptor chain fused to part of the constant region of a human IgG. IFNAR2-Fc was expressed in chinese hamster ovary (CHO) cells and purified by protein A sepharose affinity chromatography according to the instructions of the manufacturer (Pierce Chem. Co., Rockford, Ill., catalog #20334). The binding of interferon-beta mutants to IFNAR2-Fc was measured in an ELISA format assay. ELISA plates were prepared by coating flat-bottomed 96 well plates overnight at 4° C. with 50 μl/well of mouse anti-human IgG1 monoclonal antibody (CDG5-AA9, Biogen, Inc.) at 10 μg/ml in coating buffer (50 mM NaHCO₃, 0.2 mM MgCl₂, 0.2 mM CaCl₂, pH 9.6). Plates were washed twice with PBS containing 0.05% Tween-20, and blocked with 0.5% non-fat dry milk in PBS for 1 hour at room temperature. After two more washes, 50 μl of 1 μg/ml IFNAR2-Fc in 0.5% milk in PBS containing 0.05% Tween-20 was added to each well and incubated for 1 hour at room temperature, and the plates were then washed twice more. Binding of the interferon-beta mutants to IFNAR2-Fc was measured by adding 50 μl/well mutant interferon-beta in conditioned media, serially diluted in Dulbecco's Modified Eagle's Medium (DMEM) supplemented with 10% fetal bovine serum, and incubating for 2 hours at 4° C. Dilutions of interferon-beta mutant typically ranged from approximately 1 μM down to 10 pM. After washing, interferon-beta bound to the plates was detected by adding 50 μl/well of a cocktail consisting of a 1:1000 dilution of a rabbit polyclonal anti-interferon antibody (#447) plus horseradish peroxidase (HRP)-labelled donkey anti-rabbit IgG (Jackson ImmunoResearch), and incubating for 15 minutes at 4° C. After two washes, HRP substrate was added, and the plate was incubated at 4° C. before being read on an ELISA plate reader at an absorbance of 450 nm. Data were plotted as absorbance versus the concentration of mutant interferon-beta, and the affinity for the binding of the mutant interferon-beta to IFNAR2-Fc was determined by fitting the data to a simple hyperbolic binding equation.

The target is the same in experiment [3]. Nature of the experiment: ELISA; IFNAR2-Fc captured on anti-human IgG1 plate; mutant in conditioned medium. The method, then:
as §1

B1: his tagged-wild-type interferon-beta-1a (ligand)
chain: SGGHHHHHHSSGDDDDKMSYNLLGFLQRSSNFQCQKLLWQLNGRLEYCLKDRMNFDIPEEIKQLQQFQKEDAALTIYEMLQNIFAIFRQDSSSTGWNETIVENLLANVYHQINHLKTVLEEKLEKEDFTRGKLMSSLHLKRYYGRILHYLKAKEYSHCAWTIVRVEILRNFYFINRLTGYLRN
notes: Expressed in human EBNA 293 cells and tested as conditioned medium; also called wild type his-IFN-beta; w.t. his-IFN-beta
B1: the binding result in experiment [1] is “binds”.

B2: his tagged-interferon-beta alanine substitution mutant AB2 (ligand)
chain: SGGHHHHHHSSGDDDDKMSYNLLGFLQRSSNFQCQKLLWQLNGRLEYCLKDRAAFAIPAEIKQLQQFQKEDAALTIYEMLQNIFAIFRQDSSSTGWNETIVENLLANVYHQINHLKTVLEEKLEKEDFTRGKLMSSLHLKRYYGRILHYLKAKEYSHCAWTIVRVEILRNFYFINRLTGYLRN
notes: Tested as EBNA 293 conditioned medium
For the molecule B2, the “EC50 relative to w.t. his-IFN-beta EC50” value in experiment [2] was > 500 fold of w.t. his-IFN-beta EC50. For the same molecule, the binding result in experiment [3] is reported as “no binding”.

B3: his tagged-interferon-beta alanine substitution mutant AB1 (ligand)
chain: SGGHHHHHHSSGDDDDKMSYNLLGFLQRSSNFQCQKLLWQLNGRAAACAADRMNFDIPEEIKQLQQFQKEDAALTIYEMLQNIFAIFRQDSSSTGWNETIVENLLANVYHQINHLKTVLEEKLEKEDFTRGKLMSSLHLKRYYGRILHYLKAKEYSHCAWTIVRVEILRNFYFINRLTGYLRN
notes: as for B2
In the case of B3, the “EC50 relative to w.t. his-IFN-beta EC50” value in experiment [2] is > 500 fold of w.t. his-IFN-beta EC50. The binding result in experiment [3] was “no binding”.

B4: his tagged-interferon-beta alanine substitution mutant E (ligand)
chain: SGGHHHHHHSSGDDDDKMSYNLLGFLQRSSNFQCQKLLWQLNGRLEYCLKDRMNFDIPEEIKQLQQFQKEDAALTIYEMLQNIFAIFRQDSSSTGWNETIVENLLANVYHQINHLKTVLEEKLEKEDFTRGKLMSSLHLKRYYGRILHYLKAKEYSHCAWTIVRAEILANFAFIARLTGYLRN
notes: also called E helix mutant
Take B4: the “EC50 relative to w.t. his-IFN-beta EC50” value in experiment [2] is > 500 fold of w.t. his-IFN-beta EC50. The binding result in experiment [3] is reported as “no binding”.

B5: his tagged-interferon-beta alanine substitution mutant A2 (ligand)
chain: SGGHHHHHHSSGDDDDKMSYNLLGFLQRSSNAACAALLAALNGRLEYCLKDRMNFDIPEEIKQLQQFQKEDAALTIYEMLQNIFAIFRQDSSSTGWNETIVENLLANVYHQINHLKTVLEEKLEKEDFTRGKLMSSLHLKRYYGRILHYLKAKEYSHCAWTIVRVEILRNFYFINRLTGYLRN
notes: Tested as EBNA 293 conditioned medium; also called A2 helix mutant
As to B5, the “EC50 relative to w.t. his-IFN-beta EC50” value in experiment [2] was > 500 fold of w.t. his-IFN-beta EC50. Besides, the binding result in experiment [3] was “no binding”.

The record behind these values is patent publication US20030021765A1 (Biogen, published 2003).
